The values that follow come from article doi:10.1101/677344.

The target of assay [1] is AausFP1 (Aequorea cf. australis). In words: crystal structure.
Assay [2] addresses AausFP2 (Aequorea cf. australis). In words: crystal structure.

What is called stoichiometry N is a count of units in the complex or per binding partner. Take AausFP1 (natural protein): the stoichiometry N in assay [1] was 2.

For AausFP2 (natural protein), the stoichiometry N in assay [2] was found to be 2.
